Key:
[1] = molecular target: vascular endothelial growth factor (VEGF) dimer (UniProt P15692); assay: split reporter
Flt-1 (Homo sapiens) = Flt-1 (Homo sapiens) (UniProt P17948); settings: cited from earlier work
Chain of Flt-1 (Homo sapiens) (P17948 27-1338): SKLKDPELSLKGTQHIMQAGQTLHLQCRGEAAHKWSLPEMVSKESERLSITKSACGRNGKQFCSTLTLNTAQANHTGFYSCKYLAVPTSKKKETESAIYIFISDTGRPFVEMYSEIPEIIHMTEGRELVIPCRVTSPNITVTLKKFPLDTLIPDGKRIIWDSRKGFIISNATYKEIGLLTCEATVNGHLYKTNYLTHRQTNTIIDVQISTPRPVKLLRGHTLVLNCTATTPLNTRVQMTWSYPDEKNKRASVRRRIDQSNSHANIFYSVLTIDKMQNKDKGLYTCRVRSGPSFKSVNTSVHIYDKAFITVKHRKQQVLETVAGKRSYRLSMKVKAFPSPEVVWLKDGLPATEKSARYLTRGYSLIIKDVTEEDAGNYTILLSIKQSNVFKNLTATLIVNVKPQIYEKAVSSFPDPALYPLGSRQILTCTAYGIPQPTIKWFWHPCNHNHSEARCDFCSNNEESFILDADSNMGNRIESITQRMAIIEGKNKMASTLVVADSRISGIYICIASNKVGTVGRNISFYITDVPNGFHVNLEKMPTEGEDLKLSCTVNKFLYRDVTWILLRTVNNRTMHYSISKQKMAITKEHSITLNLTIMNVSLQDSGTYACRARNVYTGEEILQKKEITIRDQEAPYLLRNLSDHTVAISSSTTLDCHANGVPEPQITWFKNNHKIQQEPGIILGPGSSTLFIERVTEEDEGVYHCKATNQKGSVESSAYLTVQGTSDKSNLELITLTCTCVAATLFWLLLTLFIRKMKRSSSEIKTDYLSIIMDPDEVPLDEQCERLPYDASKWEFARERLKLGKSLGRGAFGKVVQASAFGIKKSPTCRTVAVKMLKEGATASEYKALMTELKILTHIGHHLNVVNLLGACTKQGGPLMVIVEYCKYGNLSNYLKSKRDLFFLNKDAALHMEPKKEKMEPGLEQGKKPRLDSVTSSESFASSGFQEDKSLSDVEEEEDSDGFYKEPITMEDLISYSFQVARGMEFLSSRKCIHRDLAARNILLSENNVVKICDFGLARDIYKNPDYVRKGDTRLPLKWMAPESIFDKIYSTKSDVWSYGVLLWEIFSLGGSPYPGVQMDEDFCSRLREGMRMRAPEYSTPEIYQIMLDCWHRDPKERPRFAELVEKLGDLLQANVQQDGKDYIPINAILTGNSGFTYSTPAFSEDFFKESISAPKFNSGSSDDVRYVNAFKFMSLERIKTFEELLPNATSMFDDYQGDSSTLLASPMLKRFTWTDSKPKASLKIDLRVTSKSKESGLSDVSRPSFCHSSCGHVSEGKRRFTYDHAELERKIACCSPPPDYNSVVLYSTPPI

Chain of Flt-1 domain 2 fused to the N-terminal half of firefly luciferase (domain or fragment) (P17948 27-1338): as above
Chain of Flt-1 domain 2 fused to the C-terminal half of firefly luciferase (domain or fragment) (P17948 27-1338): as above
Chain of VEGF (P15692 whole entry): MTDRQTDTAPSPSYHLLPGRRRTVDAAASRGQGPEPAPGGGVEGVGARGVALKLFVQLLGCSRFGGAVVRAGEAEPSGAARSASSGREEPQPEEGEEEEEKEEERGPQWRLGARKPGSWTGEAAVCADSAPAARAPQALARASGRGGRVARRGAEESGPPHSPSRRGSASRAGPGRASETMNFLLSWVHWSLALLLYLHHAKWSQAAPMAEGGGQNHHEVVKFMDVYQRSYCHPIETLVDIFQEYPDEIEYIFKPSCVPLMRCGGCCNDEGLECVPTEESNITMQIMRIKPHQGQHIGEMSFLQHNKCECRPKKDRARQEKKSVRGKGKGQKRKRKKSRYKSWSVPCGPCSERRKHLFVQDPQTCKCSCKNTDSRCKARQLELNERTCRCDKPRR

| fold increase in luminescence [1] [fold] | Substance | Kd (Flt-1 (Homo sapiens)) [nM] |
| --- | --- | --- |
| > 13 | Flt-1 domain 2 fused to the N-terminal half of firefly luciferase (domain or fragment) | – |
| > 13 | Flt-1 domain 2 fused to the C-terminal half of firefly luciferase (domain or fragment) | – |
| – | VEGF (from UniProt P15692) | 1.4 |

Source: paper PMC2955838
